Assay results reported in patent US20180155451A1 (published 2018).

T1: FcγRIIb extracellular domain with C-terminal His tag (human, UniProt P31994 43-217)
T1 construct: extracellular domain; Soluble receptor expressed in FreeStyle293 cells; analyte in Biacore; also called FcgRIIb; 2b; not shown: His tag at the C terminus
T1 sequence (looked up): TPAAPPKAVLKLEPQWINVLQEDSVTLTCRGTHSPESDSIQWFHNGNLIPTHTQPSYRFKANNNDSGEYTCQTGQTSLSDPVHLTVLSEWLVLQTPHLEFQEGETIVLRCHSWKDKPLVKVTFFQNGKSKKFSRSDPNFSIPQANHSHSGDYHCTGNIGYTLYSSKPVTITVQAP


Columns and labels:
[1] = biological target: T2, FcγRIa extracellular domain with C-terminal His tag (human, UniProt P12314 16-292); assay: SPR (Biacore); He/Con_1a divided by He/Con_2b (FcγRIIb)
T2 construct: extracellular domain; Soluble receptor expressed in FreeStyle293 cells; analyte in Biacore; also called FcgRI; FcgRIa; not shown: His tag at the C terminus
T2 sequence (P12314 16-292): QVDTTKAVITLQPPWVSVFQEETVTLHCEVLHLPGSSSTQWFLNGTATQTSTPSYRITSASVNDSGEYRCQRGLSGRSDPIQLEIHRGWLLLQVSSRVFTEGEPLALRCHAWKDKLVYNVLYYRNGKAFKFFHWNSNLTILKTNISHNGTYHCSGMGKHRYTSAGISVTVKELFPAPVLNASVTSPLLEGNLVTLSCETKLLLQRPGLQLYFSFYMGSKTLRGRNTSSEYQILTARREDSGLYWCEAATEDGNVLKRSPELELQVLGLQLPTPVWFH
Procedure: (§1) The heterodimerized antibodies He Abs in which one of the H chains was introduced with an alteration were assayed for their binding activities to each activating FcγR and inhibitory FcγR according to the method described in Example 4. […] The activating FcγRs in FIGS. 26, 27, 28, and 29 are FcγRIa, FcγRIIa (R), FcγRIIa (H), and FcγRIIIa, respectively.
(§2) Analysis of interaction between objective antibody and the FcγR was carried out using Biacore T100 (GE Healthcare). HBS-EP+ (GE Healthcare) was used as the running buffer, and the measurement temperature was set to 25° C. Chips produced by immobilizing the antigen peptide by the amine coupling method to a Series S Sencor Chip CM5 (GE Healthcare), or alternatively, chips produced by allowing preliminarily biotinylated antigen peptides to interact with and immobilize onto a Series S Sensor Chip SA (certified) (GE Healthcare) were used. Antibodies of interest were captured onto an antigen peptide-immobilized chip, and allowed to interact to each FcγR diluted with running buffer. To regenerate and repeatedly use the chip, the antibodies captured on the chip were washed off by reacting 10 mM glycine-HCl, pH 1.5.

[2] = biological target: T2, FcγRIa extracellular domain with …; assay: SPR (Biacore), antibody captured on antigen peptide chip, FcγR as analyte; binding relative to GpH7-A5/GpH7-B3/GpL16-k0 = 100
Procedure: as §1, §2

[3] = biological target: T1, FcγRIIb extracellular domain with …; assay: as above
Procedure: as §1, §2

| Binder | He_1a/2b (Ia/IIb) [1] | He/Con_1a (Ia binding) [2] | He/Con_2b (IIb binding) [3] |
| --- | --- | --- | --- |
| GpH7-A5/GpH7-B3 variant L328_18N/GpL16-k0 (antibody, human IgG1, kappa, He Ab: heterodimerized anti-glypican-3 IgG1, substitution in one H chain only; also called He Ab L328N) heavy 1: not shown heavy 2: not shown light: DIVMTQSPLSLPVTPGEPASISCQASESLVHSNRNTYLHWYLQKPGQSPQLLIYKVSNRFSGVPDRFSGSGSGTDFTLKISRVEAEDVGVYYCSQNTHVPPTFGQGTKVEIERTVAAPSVFIFPPSDEQLKSGTASVVCLLNNFYPREAKVQWKVDNALQSGNSQESVTEQDSKDSTYSLSSTLTLSKADYEKHKVYACEVTHQGLSSPVTKSFNRGEC | 1.22 | 98.7 % of control (control = 100) | 80.8 % of control (control = 100) |
| GpH7-A5/GpH7-B3 variant P329_03V/GpL16-k0 (antibody, human IgG1, kappa, He Ab: heterodimerized anti-glypican-3 IgG1, substitution in one H chain only; also called He Ab P329V) heavy 1: not shown heavy 2: not shown light: DIVMTQSPLSLPVTPGEPASISCQASESLVHSNRNTYLHWYLQKPGQSPQLLIYKVSNRFSGVPDRFSGSGSGTDFTLKISRVEAEDVGVYYCSQNTHVPPTFGQGTKVEIERTVAAPSVFIFPPSDEQLKSGTASVVCLLNNFYPREAKVQWKVDNALQSGNSQESVTEQDSKDSTYSLSSTLTLSKADYEKHKVYACEVTHQGLSSPVTKSFNRGEC | 2.53 | 97.4 % of control (control = 100) | 38.5 % of control (control = 100) |
| GpH7-A5/GpH7-B3 variant P329_09D/GpL16-k0 (antibody, human IgG1, kappa, He Ab: substitution in one H chain only; also called He Ab P329D) heavy 1: not shown heavy 2: not shown light: DIVMTQSPLSLPVTPGEPASISCQASESLVHSNRNTYLHWYLQKPGQSPQLLIYKVSNRFSGVPDRFSGSGSGTDFTLKISRVEAEDVGVYYCSQNTHVPPTFGQGTKVEIERTVAAPSVFIFPPSDEQLKSGTASVVCLLNNFYPREAKVQWKVDNALQSGNSQESVTEQDSKDSTYSLSSTLTLSKADYEKHKVYACEVTHQGLSSPVTKSFNRGEC | 1.45 | 77.6 % of control (control = 100) | 53.5 % of control (control = 100) |
| GpH7-A5/GpH7-B3 variant P329_08L/GpL16-k0 (antibody, human IgG1, kappa, He Ab: heterodimerized anti-glypican-3 IgG1, substitution in one H chain only; also called He Ab P329L) heavy 1: not shown heavy 2: not shown light: DIVMTQSPLSLPVTPGEPASISCQASESLVHSNRNTYLHWYLQKPGQSPQLLIYKVSNRFSGVPDRFSGSGSGTDFTLKISRVEAEDVGVYYCSQNTHVPPTFGQGTKVEIERTVAAPSVFIFPPSDEQLKSGTASVVCLLNNFYPREAKVQWKVDNALQSGNSQESVTEQDSKDSTYSLSSTLTLSKADYEKHKVYACEVTHQGLSSPVTKSFNRGEC | 2.95 | 85.7 % of control (control = 100) | 29.1 % of control (control = 100) |
| GpH7-A5/GpH7-B3 variant P329_10E/GpL16-k0 (antibody, human IgG1, kappa, He Ab: substitution in one H chain only; also called He Ab P329E) heavy 1: not shown heavy 2: not shown light: DIVMTQSPLSLPVTPGEPASISCQASESLVHSNRNTYLHWYLQKPGQSPQLLIYKVSNRFSGVPDRFSGSGSGTDFTLKISRVEAEDVGVYYCSQNTHVPPTFGQGTKVEIERTVAAPSVFIFPPSDEQLKSGTASVVCLLNNFYPREAKVQWKVDNALQSGNSQESVTEQDSKDSTYSLSSTLTLSKADYEKHKVYACEVTHQGLSSPVTKSFNRGEC | 1.5 | 78.8 % of control (control = 100) | 52.7 % of control (control = 100) |
| GpH7-A5/GpH7-B3 variant P329_04F/GpL16-k0 (antibody, human IgG1, kappa, He Ab: heterodimerized anti-glypican-3 IgG1, substitution in one H chain only; also called He Ab P329F) heavy 1: not shown heavy 2: not shown light: DIVMTQSPLSLPVTPGEPASISCQASESLVHSNRNTYLHWYLQKPGQSPQLLIYKVSNRFSGVPDRFSGSGSGTDFTLKISRVEAEDVGVYYCSQNTHVPPTFGQGTKVEIERTVAAPSVFIFPPSDEQLKSGTASVVCLLNNFYPREAKVQWKVDNALQSGNSQESVTEQDSKDSTYSLSSTLTLSKADYEKHKVYACEVTHQGLSSPVTKSFNRGEC | 2.88 | 92.7 % of control (control = 100) | 32.2 % of control (control = 100) |
| GpH7-A5/GpH7-B3 variant P329_07I/GpL16-k0 (antibody, human IgG1, kappa, He Ab: heterodimerized anti-glypican-3 IgG1, substitution in one H chain only; also called He Ab P329I) heavy 1: not shown heavy 2: not shown light: DIVMTQSPLSLPVTPGEPASISCQASESLVHSNRNTYLHWYLQKPGQSPQLLIYKVSNRFSGVPDRFSGSGSGTDFTLKISRVEAEDVGVYYCSQNTHVPPTFGQGTKVEIERTVAAPSVFIFPPSDEQLKSGTASVVCLLNNFYPREAKVQWKVDNALQSGNSQESVTEQDSKDSTYSLSSTLTLSKADYEKHKVYACEVTHQGLSSPVTKSFNRGEC | 2.72 | 94.1 % of control (control = 100) | 34.6 % of control (control = 100) |
| GpH7-A5/GpH7-B3 variant P329_06M/GpL16-k0 (antibody, human IgG1, kappa, He Ab: heterodimerized anti-glypican-3 IgG1, substitution in one H chain only; also called He Ab P329M) heavy 1: not shown heavy 2: not shown light: DIVMTQSPLSLPVTPGEPASISCQASESLVHSNRNTYLHWYLQKPGQSPQLLIYKVSNRFSGVPDRFSGSGSGTDFTLKISRVEAEDVGVYYCSQNTHVPPTFGQGTKVEIERTVAAPSVFIFPPSDEQLKSGTASVVCLLNNFYPREAKVQWKVDNALQSGNSQESVTEQDSKDSTYSLSSTLTLSKADYEKHKVYACEVTHQGLSSPVTKSFNRGEC | 2.94 | 85.3 % of control (control = 100) | 29.1 % of control (control = 100) |
| GpH7-A5/GpH7-B3 variant P329_02A/GpL16-k0 (antibody, human IgG1, kappa, He Ab: heterodimerized anti-glypican-3 IgG1, substitution in one H chain only; also called He Ab P329A) heavy 1: not shown heavy 2: not shown light: DIVMTQSPLSLPVTPGEPASISCQASESLVHSNRNTYLHWYLQKPGQSPQLLIYKVSNRFSGVPDRFSGSGSGTDFTLKISRVEAEDVGVYYCSQNTHVPPTFGQGTKVEIERTVAAPSVFIFPPSDEQLKSGTASVVCLLNNFYPREAKVQWKVDNALQSGNSQESVTEQDSKDSTYSLSSTLTLSKADYEKHKVYACEVTHQGLSSPVTKSFNRGEC | 2.52 | 102 % of control (control = 100) | 40.5 % of control (control = 100) |

The next lines start with the values.

| He_1a/2b (Ia/IIb) [1] | He/Con_1a (Ia binding) [2] | He/Con_2b (IIb binding) [3] | Binder |
| --- | --- | --- | --- |
| 4.17 | 70.4 % of control (control = 100) | 16.9 % of control (control = 100) | GpH7-A5/GpH7-B3 variant P329_11K/GpL16-k0 (antibody, human IgG1, kappa, He Ab: substitution in one H chain only; also called He Ab P329K) heavy 1: not shown heavy 2: not shown light: DIVMTQSPLSLPVTPGEPASISCQASESLVHSNRNTYLHWYLQKPGQSPQLLIYKVSNRFSGVPDRFSGSGSGTDFTLKISRVEAEDVGVYYCSQNTHVPPTFGQGTKVEIERTVAAPSVFIFPPSDEQLKSGTASVVCLLNNFYPREAKVQWKVDNALQSGNSQESVTEQDSKDSTYSLSSTLTLSKADYEKHKVYACEVTHQGLSSPVTKSFNRGEC |
| 2.09 | 95.6 % of control (control = 100) | 45.7 % of control (control = 100) | GpH7-A5/GpH7-B3 variant P329_15Y/GpL16-k0 (antibody, human IgG1, kappa, He Ab: heterodimerized anti-glypican-3 IgG1, substitution in one H chain only; also called He Ab P329Y) heavy 1: not shown heavy 2: not shown light: DIVMTQSPLSLPVTPGEPASISCQASESLVHSNRNTYLHWYLQKPGQSPQLLIYKVSNRFSGVPDRFSGSGSGTDFTLKISRVEAEDVGVYYCSQNTHVPPTFGQGTKVEIERTVAAPSVFIFPPSDEQLKSGTASVVCLLNNFYPREAKVQWKVDNALQSGNSQESVTEQDSKDSTYSLSSTLTLSKADYEKHKVYACEVTHQGLSSPVTKSFNRGEC |
| 2.37 | 89.7 % of control (control = 100) | 37.9 % of control (control = 100) | GpH7-A5/GpH7-B3 variant P329_14T/GpL16-k0 (antibody, human IgG1, kappa, He Ab: heterodimerized anti-glypican-3 IgG1, substitution in one H chain only; also called He Ab P329T) heavy 1: not shown heavy 2: not shown light: DIVMTQSPLSLPVTPGEPASISCQASESLVHSNRNTYLHWYLQKPGQSPQLLIYKVSNRFSGVPDRFSGSGSGTDFTLKISRVEAEDVGVYYCSQNTHVPPTFGQGTKVEIERTVAAPSVFIFPPSDEQLKSGTASVVCLLNNFYPREAKVQWKVDNALQSGNSQESVTEQDSKDSTYSLSSTLTLSKADYEKHKVYACEVTHQGLSSPVTKSFNRGEC |
| 2.27 | 93.3 % of control (control = 100) | 41 % of control (control = 100) | GpH7-A5/GpH7-B3 variant P329_13S/GpL16-k0 (antibody, human IgG1, kappa, He Ab: heterodimerized anti-glypican-3 IgG1, substitution in one H chain only; also called He Ab P329S) heavy 1: not shown heavy 2: not shown light: DIVMTQSPLSLPVTPGEPASISCQASESLVHSNRNTYLHWYLQKPGQSPQLLIYKVSNRFSGVPDRFSGSGSGTDFTLKISRVEAEDVGVYYCSQNTHVPPTFGQGTKVEIERTVAAPSVFIFPPSDEQLKSGTASVVCLLNNFYPREAKVQWKVDNALQSGNSQESVTEQDSKDSTYSLSSTLTLSKADYEKHKVYACEVTHQGLSSPVTKSFNRGEC |
| 4.22 | 74.3 % of control (control = 100) | 17.6 % of control (control = 100) | GpH7-A5/GpH7-B3 variant P329_12R/GpL16-k0 (antibody, human IgG1, kappa, He Ab: substitution in one H chain only; also called He Ab P329R) heavy 1: not shown heavy 2: not shown light: DIVMTQSPLSLPVTPGEPASISCQASESLVHSNRNTYLHWYLQKPGQSPQLLIYKVSNRFSGVPDRFSGSGSGTDFTLKISRVEAEDVGVYYCSQNTHVPPTFGQGTKVEIERTVAAPSVFIFPPSDEQLKSGTASVVCLLNNFYPREAKVQWKVDNALQSGNSQESVTEQDSKDSTYSLSSTLTLSKADYEKHKVYACEVTHQGLSSPVTKSFNRGEC |
